Experimental data taken from US20240199757A1.

Target: T1, human NT5E expressed on MDA-MB-231 cells (human) (UniProt P21589)
T1 sequence (looked up): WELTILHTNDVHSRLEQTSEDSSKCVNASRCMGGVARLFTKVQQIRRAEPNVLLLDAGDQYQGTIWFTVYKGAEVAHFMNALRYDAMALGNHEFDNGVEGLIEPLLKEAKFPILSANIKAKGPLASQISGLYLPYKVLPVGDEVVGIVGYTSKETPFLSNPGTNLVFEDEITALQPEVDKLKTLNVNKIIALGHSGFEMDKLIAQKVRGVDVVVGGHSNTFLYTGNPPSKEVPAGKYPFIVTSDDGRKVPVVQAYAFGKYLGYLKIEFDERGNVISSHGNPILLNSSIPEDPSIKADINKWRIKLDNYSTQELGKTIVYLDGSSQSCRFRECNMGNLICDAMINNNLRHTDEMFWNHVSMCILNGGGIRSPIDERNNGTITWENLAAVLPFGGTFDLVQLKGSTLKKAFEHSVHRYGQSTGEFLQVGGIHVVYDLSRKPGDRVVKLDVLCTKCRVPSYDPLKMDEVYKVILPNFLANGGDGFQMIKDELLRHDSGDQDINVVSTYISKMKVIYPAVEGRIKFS
Assay: cell-based or functional assay

BMS986179 IgG (antibody) was tested, and the IC50 of NT5E activity on MDA-MB-231 cells, no ATP was 0.6 nM, the IC50 of NT5E activity on MDA-MB-231 cells, with ATP was 1.1 nM and the maximal inhibition of NT5E on MDA-MB-231 cells was 70%.
